Assay [1] deals with PD-1 on the Jurkat effector cells of the PD-1/PD-L1 blockade bioassay (UniProt Q15116 25-288, limits assumed). The assay can be described thus: cell-based or functional assay.
The next assay has as its target T1, BSA.
T1 construct: also called control protein (BSA)
Put plainly: ELISA: BSA coated on the plate, anti-human-Fc-HRP, chemiluminescence. The protocol: (§1) Briefly, recombinant proteins were coated on 96-well plates. Plates were covered and left at 4° C. overnight. The next day, plates were washed once with PBS and blocked with blocking buffer for 1 hour at room temperature. Binding agents were tested at the indicated concentration (357 nM starting concentration, followed by 12 one in four serial dilutions for FIG. 9B lower panel), diluted in the blocking buffer, and incubated for 1 hour at 37° C. After incubation, plates were washed three times with washing buffer. Plates were incubated with anti-human-Fc-HRP (Sigma-Aldrich, Cat. No. AP113P) diluted at 1:5000 for 1 hour at room temperature, then washed three times with PBS-T washing buffer. The signal was developed with SuperSignal™ ELISA Pico Chemiluminescent Substrate (Thermofisher, Cat. No. 37069). The plates were read on a SpectraMax™ i3x Multi-Mode Microplate Reader (Molecular Devices).

Assay [2] deals with T2, recombinant rat PD-1 protein (rat, UniProt D3ZIN8 25-169).
T2 construct: also called rat recombinant PD1 protein
T2 sequence: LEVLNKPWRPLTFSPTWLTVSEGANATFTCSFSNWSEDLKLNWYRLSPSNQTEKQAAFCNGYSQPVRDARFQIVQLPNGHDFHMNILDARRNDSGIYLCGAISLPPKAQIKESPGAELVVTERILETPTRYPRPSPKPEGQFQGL
Put plainly: ELISA: recombinant rat PD-1 coated on the plate, anti-human-Fc-HRP, chemiluminescence. The protocol:
as §1

For assay [3], the target named is T3, recombinant human PD-1 protein (human, UniProt Q15116 25-167).
T3 construct: Bought (Cedarlane Cat. No. HPLC-10377-H08H-100); also called human recombinant PD1 protein; PD-1 recombinant protein
Put plainly: ELISA: recombinant human PD-1 coated on the plate, anti-human-Fc-HRP, chemiluminescence. The protocol:
as §1

The target of assay [4] is T4, recombinant cynomolgus monkey PD-1 protein (cynomolgus monkey, UniProt B0LAJ3 25-170).
T4 construct: also called cynomolgus monkey recombinant PD1 protein
Put plainly: ELISA: recombinant cynomolgus PD-1 coated on the plate, anti-human-Fc-HRP, chemiluminescence. The protocol:
as §1

In assay [5] the target is T3, recombinant human PD-1 protein. Put plainly: ELISA: recombinant human PD-1 coated on the plate, anti-human-Fc-HRP, chemiluminescence. The procedure:
as §1
This is another data set of the same source.

For assay [6] the target is unchanged. Described as above. The procedure:
as §1
The source holds these as a separate data set.

Assay [7] deals with T5, recombinant human CD47 protein (human, UniProt Q08722 19-139).
T5 construct: Bought (Cedarlane Cat. No. 12283-H08H-200); also called human recombinant CD47 protein; CD47 recombinant protein
Put plainly: ELISA: recombinant human CD47 coated on the plate, chemiluminescence.

Assay [8] addresses T6, recombinant cynomolgus CD47 protein (cynomolgus monkey, UniProt A0A5F8AK49 19-139 (rhesus entry)).
T6 construct: also called cynomolgus monkey CD47 recombinant protein
The assay can be described thus: ELISA: recombinant cynomolgus CD47 coated on the plate, chemiluminescence.

For assay [9], the target named is T7, human CD47 on cells (HEK293T cells, human blood cells, primary human T cells) (human, UniProt Q08722 19-323).
T7 construct: Endogenous CD47 of human cells; For blood cells and T cells it is inferred from the specificity of the anti-CD47 module
Put plainly: flow cytometry on primary human T cells.

Assay [10] deals with T8, human PD-1 on CHO-PD1 cells (human, UniProt Q15116 25-288).
T8 construct: also called CHO-PD-1 cell line
Put plainly: flow cytometry on CHO-PD1 cells, APC anti-human-Fc secondary antibody.

Like-named read-outs stand apart in the source and are kept apart here.

T3 sequence (Q15116 25-167 limits assumed): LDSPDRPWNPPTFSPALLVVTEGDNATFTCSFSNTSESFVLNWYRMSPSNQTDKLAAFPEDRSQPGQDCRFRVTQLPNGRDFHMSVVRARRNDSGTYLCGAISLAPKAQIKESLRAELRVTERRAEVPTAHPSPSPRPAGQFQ
T4 sequence (B0LAJ3 entry or part of it limits assumed): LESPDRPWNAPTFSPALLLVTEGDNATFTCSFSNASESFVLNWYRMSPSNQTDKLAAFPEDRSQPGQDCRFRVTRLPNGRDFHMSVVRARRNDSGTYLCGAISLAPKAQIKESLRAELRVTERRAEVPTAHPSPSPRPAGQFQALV
T1 sequence (chain, as listed by the source limits assumed): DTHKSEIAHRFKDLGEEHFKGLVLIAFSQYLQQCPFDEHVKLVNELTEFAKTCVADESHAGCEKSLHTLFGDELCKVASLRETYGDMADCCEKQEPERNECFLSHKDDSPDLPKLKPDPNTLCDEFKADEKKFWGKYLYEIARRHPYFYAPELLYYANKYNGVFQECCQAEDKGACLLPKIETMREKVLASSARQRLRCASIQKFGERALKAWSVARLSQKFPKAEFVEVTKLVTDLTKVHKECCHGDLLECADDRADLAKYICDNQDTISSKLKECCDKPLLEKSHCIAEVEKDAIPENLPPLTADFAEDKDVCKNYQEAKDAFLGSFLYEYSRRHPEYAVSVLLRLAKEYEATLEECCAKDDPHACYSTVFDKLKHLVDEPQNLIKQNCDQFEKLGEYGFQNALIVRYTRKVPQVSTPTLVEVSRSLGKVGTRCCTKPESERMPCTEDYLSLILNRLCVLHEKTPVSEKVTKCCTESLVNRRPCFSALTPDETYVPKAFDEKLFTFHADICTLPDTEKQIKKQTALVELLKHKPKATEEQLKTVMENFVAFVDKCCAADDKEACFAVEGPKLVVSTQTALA
Sequence of PD-1 on the Jurkat effector cells of the PD-1/PD-L1 blockade bioassay (Q15116 25-288 limits assumed): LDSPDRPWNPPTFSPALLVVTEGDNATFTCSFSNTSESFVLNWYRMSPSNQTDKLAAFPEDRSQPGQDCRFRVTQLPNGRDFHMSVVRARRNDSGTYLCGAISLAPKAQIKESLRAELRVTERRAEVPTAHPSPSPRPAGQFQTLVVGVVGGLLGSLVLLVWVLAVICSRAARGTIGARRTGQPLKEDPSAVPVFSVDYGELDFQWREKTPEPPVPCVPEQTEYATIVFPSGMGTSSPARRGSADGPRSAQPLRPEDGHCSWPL
T8 sequence (Q15116 25-288 limits assumed): as above

B1: KC036 (Fc fusion)
chain: QVQLVESGGGSVQAGGSLRLSCAASGSTDSIEYMTWFRQAPGKAREGVAALYTHTGNTYYTDSVKGRFTISQDKAKNMAYLRMDSVKSEDTAIYTCGATRKYVPVRFALDQSSYDYWGQGTQVTVSSEPKSCDKTHTCPPCPAPELLGGPSVFLFPPKPKDTLMISRTPEVTCVVVDVSHEDPEVKFNWYVDGVEVHNAKTKPREEQYNSTYRVVSVLTVLHQDWLNGKEYKCKVSNKALPAPIEKTISKAKGQPREPQVYTLPPSREQMTKNQVSLTCLVKGFYPSDIAVEWESNGQPENNYKTTPPVLNSDGSFFLYSKLTVDKSRWQQGNVFSCSVMHEALHNHYTQESLSLSPGKAPAPAPAPAPKAQVQLQESGGGWVQPGGSLRLSCVASGFTFSRSSMSWHRQAPGKERDLVAIISSSGIITHYSDSVKGRFTISRDNAKDTVYLQMNSLKPEDTAVYVCNAVLDDDSGDYWGQGTQVTVSSGGGGSGGGGSGGGGSQVQLVESGGGSVQAGGSLRLSCAASGSTDSIEYMTWFRQAPGKAREGVAALYTHTGNTYYTDSVKGRFTISQDKAKNMAYLRMDSVKSEDTAIYTCGATRKYVPVRFALDQSSYDYWGQGTQVTVSS
notes: May comprise a His-tag or not; also called (HEWL)
For the molecule B1, the “EC50 (read off the curve), PD-1/PD-L1 blockade NFAT-luciferase reporter” value in assay [1] was roughly 2 nM. For the same molecule, the binding result in the assay with BSA is “no binding (tested: about 700 nM)”. Also, the “EC50 (read off the curve)” value in [2] was roughly 0.1 nM; in assay [3], roughly 0.1 nM; in [4], roughly 0.1 nM; in assay [5], roughly 0.2 nM; in [6] it was roughly 0.2 nM.

B2: KC067 (Fc fusion)
chain: QVQLVESGGGSVQAGGSLRLSCAASGSTDSIEYMTWFRQAPGKAREGVAALYTHTGNTYYTDSVKGRFTISQDKAKNMAYLRMDSVKSEDTAIYTCGATRKYVPVRFALDQSSYDYWGQGTQVTVSSEPKSCDKTHTCPPCPAPELLGGPSVFLFPPKPKDTLMISRTPEVTCVVVDVSHEDPEVKFNWYVDGVEVHNAKTKPREEQYNSTYRVVSVLTVLHQDWLNGKEYKCKVSNKALPAPIEKTISKAKGQPREPQVYTLPPSREQMTKNQVSLTCLVKGFYPSDIAVEWESNGQPENNYKTTPPVLNSDGSFFLYSKLTVDKSRWQQGNVFSCSVMHEALHNHYTQESLSLSPGKAPAPAPAPAPKAQVQLQESGGGLVQPGGSLRLSCAASGFTFSNYGMSWVRQAPGEGLEWVSSIDSTGGTTRYADSVKGRFTISRDNAKNALYLQMNSLKPEDTAVYYCAKDFLSWMPRGQGTQVTVSSGGGGSGGGGSGGGGSQVQLVESGGGSVQAGGSLRLSCAASGSTDSIEYMTWFRQAPGKAREGVAALYTHTGNTYYTDSVKGRFTISQDKAKNMAYLRMDSVKSEDTAIYTCGATRKYVPVRFALDQSSYDYWGQGTQVTVSS
notes: the ranges are mine
On to B2, for which the “EC50 (read off the curve)” value in [6] was roughly 0.5 nM.

B3: monoclonal anti-CD47 antibody clone B6H12 (antibody)
chain: EVQLVESGGDLVKPGGSLKLSCAASGFTFSGYGMSWVRQTPDKRLEWVATITSGGTYTYYPDSVKGRFTISRDNAKNTLYLQIDSLKSEDTAIYFCARSLAGNAMDYWGQGTSVTVSSGGGGSGGGGSGGGGSDIVMTQSPATLSVTPGDRVSLSCRASQTISDYLHWYQQKSHESPRLLIKFASQSISGIPSRFSGSGSGSDFTLSINSVEPEDVGVYYCQNGHGFPRTFGGGTKLEIK
On to B3, for which the entries for the “EC50 (read off the curve)” value in [7] and in assay [8] were roughly 0.5 nM and roughly 0.1 nM, respectively.

B4: KC035 (Fc fusion)
chain: QVQLVESGGGSVQAGGSLRLSCAASGSTDSIEYMTWFRQAPGKAREGVAALYTHTGNTYYTDSVKGRFTISQDKAKNMAYLRMDSVKSEDTAIYTCGATRKYVPVRFALDQSSYDYWGQGTQVTVSSEPKSCDKTHTCPPCPAPELLGGPSVFLFPPKPKDTLMISRTPEVTCVVVDVSHEDPEVKFNWYVDGVEVHNAKTKPREEQYNSTYRVVSVLTVLHQDWLNGKEYKCKVSNKALPAPIEKTISKAKGQPREPQVYTLPPSREQMTKNQVSLTCLVKGFYPSDIAVEWESNGQPENNYKTTPPVLNSDGSFFLYSKLTVDKSRWQQGNVFSCSVMHEALHNHYTQESLSLSPGKAPAPAPAPAPKAQVQLVESGGGSVQAGGSLRLSCAASGSTDSIEYMTWFRQAPGKAREGVAALYTHTGNTYYTDSVKGRFTISQDKAKNMAYLRMDSVKSEDTAIYTCGATRKYVPVRFALDQSSYDYWGQGTQVTVSSGGGGSGGGGSGGGGSQVQLVESGGGSVQAGGSLRLSCAASGSTDSIEYMTWFRQAPGKAREGVAALYTHTGNTYYTDSVKGRFTISQDKAKNMAYLRMDSVKSEDTAIYTCGATRKYVPVRFALDQSSYDYWGQGTQVTVSS
notes: Three anti-HEWL VHHs on an Fc; May comprise a His-tag or not; also called negative control
With B4, the binding result is listed as “no binding (tested: 350 nM)” in assay [9], “no binding” in [10], “no binding (tested: about 700 nM)” in [3] and “no binding (tested: about 700 nM)” in assay [4].

B5: KC034 (Fc fusion)
VHH-hinge-CH2-CH3-linker-VHH-linker-VHH polypeptide chain: QVQLVESGGGSVQAGGSLRLSCAASGSTDSIEYMTWFRQAPGKAREGVAALYTHTGNTYYTDSVKGRFTISQDKAKNMAYLRMDSVKSEDTAIYTCGATRKYVPVRFALDQSSYDYWGQGTQVTVSSEPKSCDKTHTCPPCPAPELLGGPSVFLFPPKPKDTLMISRTPEVTCVVVDVSHEDPEVKFNWYVDGVEVHNAKTKPREEQYNSTYRVVSVLTVLHQDWLNGKEYKCKVSNKALPAPIEKTISKAKGQPREPQVYTLPPSREQMTKNQVSLTCLVKGFYPSDIAVEWESNGQPENNYKTTPPVLNSDGSFFLYSKLTVDKSRWQQGNVFSCSVMHEALHNHYTQESLSLSPGKAPAPAPAPAPKAQVQLVESGGGSVQAGGSLRLSCAASGSTDSIEYMTWFRQAPGKAREGVAALYTHTGNTYYTDSVKGRFTISQDKAKNMAYLRMDSVKSEDTAIYTCGATRKYVPVRFALDQSSYDYWGQGTQVTVSSGGGGSGGGGSGGGGSEVQLVESGGGLVQPGGSLRLSCAASGDIYKSFDMGWYRQAPGKQRDLVAVIGSRGNNRGRTNYADSVKGRFTISRDGTGNTVYLLMNKLRPEDTAIYYCNTAPLVAGRPWGRGTLVTVSS
notes: also called (HEWL)
Regarding B5, the binding result in [9] is given as “no binding (tested: 350 nM)”.

(Values after patent US20250313638A1 (KISOJI BIOTECHNOLOGY, published 2025).)
